Assay results reported in patent US20220251221A1 (AGENCY FOR SCIENCE TECHNOLOGY AND RESEARCH, published 2022).

T1: recombinant IL-2Rβ-Fc (Homo sapiens (Human), UniProt P14784 27-240)
T1 construct: also called CD122-Fc; not shown: Fc part of the fusion not described
T1 sequence: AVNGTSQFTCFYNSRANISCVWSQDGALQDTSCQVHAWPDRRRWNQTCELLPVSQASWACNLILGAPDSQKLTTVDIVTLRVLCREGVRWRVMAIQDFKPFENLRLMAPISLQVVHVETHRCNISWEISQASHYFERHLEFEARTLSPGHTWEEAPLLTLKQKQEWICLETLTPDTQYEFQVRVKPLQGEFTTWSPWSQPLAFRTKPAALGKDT

T2: recombinant γc-Fc (Homo sapiens (Human), UniProt P31785 23-262)
T2 construct: also called CD132-Fc; not shown: Fc part of the fusion not described
T2 sequence: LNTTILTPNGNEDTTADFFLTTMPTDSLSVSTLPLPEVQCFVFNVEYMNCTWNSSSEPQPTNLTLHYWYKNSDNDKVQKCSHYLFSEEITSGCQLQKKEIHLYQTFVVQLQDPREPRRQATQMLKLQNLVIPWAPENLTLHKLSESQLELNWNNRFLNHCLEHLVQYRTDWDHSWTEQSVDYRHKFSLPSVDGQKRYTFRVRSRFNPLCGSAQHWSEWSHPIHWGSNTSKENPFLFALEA

T3: monomeric IL-2Rβ (Homo sapiens (Human), UniProt P14784 27-240, limits assumed)
T3 construct: Neither the limits nor the species of the construct are stated; also called CD122
T3 sequence: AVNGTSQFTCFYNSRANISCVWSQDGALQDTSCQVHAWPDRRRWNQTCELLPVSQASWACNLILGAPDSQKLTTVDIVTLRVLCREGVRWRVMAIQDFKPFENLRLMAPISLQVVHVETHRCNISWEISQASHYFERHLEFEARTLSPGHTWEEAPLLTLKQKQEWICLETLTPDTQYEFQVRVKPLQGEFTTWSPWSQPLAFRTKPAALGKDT

T4: monomeric γc (Homo sapiens (Human), UniProt P31785 23-262, limits assumed)
T4 construct: Neither the limits nor the species of the construct are stated; also called CD132; common γ chain
T4 sequence: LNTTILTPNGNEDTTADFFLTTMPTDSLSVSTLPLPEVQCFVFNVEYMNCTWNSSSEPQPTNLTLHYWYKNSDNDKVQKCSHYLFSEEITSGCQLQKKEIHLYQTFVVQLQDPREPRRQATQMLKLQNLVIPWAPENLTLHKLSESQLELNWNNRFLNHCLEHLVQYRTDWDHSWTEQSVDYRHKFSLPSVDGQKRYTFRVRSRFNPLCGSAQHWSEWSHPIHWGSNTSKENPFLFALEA


Legend:
recombinant IL-2Rβ-Fc = biological target: T1, recombinant IL-2Rβ-Fc; assay: ELISA on coated IL-2Rβ-Fc ('Binding to IL-2RB (Fc)'), biotinylated antibody, streptavidin-HRP, the axis is [Ab]/nM
Description: (§1) Binding of P2C4/P1A3 to IL-2Rβ or γc was measured by ELISA analysis, using recombinant IL-2Rβ-Fc and γc-Fc coated on maxisorp plates.
(§2) Biotinylated P2C4/P1A3 was added at various concentrations. Detection of binding was performed using a colorimetric assay using HRP-conjugated streptavidin which converts TMB substrate to a blue solution. The reaction was stopped using hydrochloric acid, and absorbance was measured at 450 nm and 670 nm.

recombinant γc-Fc = biological target: T2, recombinant γc-Fc; assay: ELISA on coated γc-Fc ('Binding to IL-2RG (Fc)'), biotinylated antibody, streptavidin-HRP, the axis is [Ab]/nM
Description: as §1, §2

monomeric IL-2Rβ = biological target: T3, monomeric IL-2Rβ; assay: BLI, antibody captured on anti-human Fc biosensor tips, monomeric IL-2Rβ in solution, 1:1 Langmuir fit
Description: (§3) The affinity of binding of P2C4/P1A3 and P2C4/P1A10 to IL-2Rβ and γc was measured by Bio-Layer Interferometry (BLI).
(§4) P2C4/P1A3 or P2C4/P1A10 were captured on anti-human Fc biosensor tips, and 5 different concentrations of monomeric IL-2Rβ or γc were allowed to bind to the captured antibodies. Dissociation of the antigen from the immobilised antibodies was performed for 5 min. Binding affinity was calculated by fitting binding curves using the 1:1 Langmuir model.

monomeric γc = biological target: T4, monomeric γc; assay: BLI, antibody captured on anti-human Fc biosensor tips, monomeric γc in solution, 1:1 Langmuir fit
Description: as §3, §4

Binder | EC50 (recombinant IL-2Rβ-Fc) | EC50 (recombinant γc-Fc) | Kd (monomeric IL-2Rβ) | koff (monomeric IL-2Rβ) | kon (monomeric IL-2Rβ) | Kd (monomeric γc) | koff (monomeric γc) | kon (monomeric γc)
P2C4/P1A3 Crossmab (bispecific antibody, V domains shown, Biotinylated for the ELISA; site not given., also called Fab (P2C4): Fab (P1A3) in CrossMab format; copies: 1 + 1 + 1 + 1) VH 1: EVQLVQSGAEVKKPGSSVKVSCKASGYTFTNYYMHWVRQAPGQGLEWMGAIMPSRGGTSYPQKFQGRVTMTGDTSTSTVYMELSSLRSEDTAVYYCARGEYYYDSSGYYYWGQGTLVTVSS VL 1: QSALTQPASVSGSPGQSIAISCTGTSSDIGHYDFVSWYQQHPGTAPKLIIYDINNRPSGISNRFSGSKSDNMASLTISGLQPEDEADYYCSAYTSSDTLVFGGGTKLTVL VH 2: QVQLQQWGAGLLKPSETLSLTCAVYGGSFSGYYWSWIRQPPGKGLEWIGEINHSGSTNYNPSLKSRATISVDTSKNQFSLKLSSVTAADTAVYYCATSPGGYSGGYFQHWGQGTLVTVSS VL 2: not shown | 0.772 nM | 21.2 nM |  |  |  |  |  | 
P2C4_FW2/P1A3_FW2 (bispecific antibody, Biotinylated for the ELISA; site not given., also called scFv (P2C4_FW2): scFv (P1A3_FW2)-KiH-Fc) chain 1: not shown chain 2: EVQLVESGGGLVQPGGSLRLSCAASGGSFSGYYWSWVRQAPGKGLEWVSEINHSGSTNYNPSLKSRFTISRDNSKNTLYLQMNSLRAEDTAVYYCARSPGGYSGGYFQHWGQGTLVTVSSGGGGSGGGGSGGGGSDIQMTQSPSSLSASVGDRVTITCRSSQSLLHSNGYNYLDWYQQKPGKAPKLLIYLGSNRDSGVPSRFSGSGSGTDFTLTISSLQPEDFATYYCMQGTHWPWTFGQGTKVEIKNSGAGTAAATHTCPPCPAPEAAGGPSVFLFPPKPKDTLMISRTPEVTCVVVDVSHEDPEVKFNWYVDGVEVHNAKTKPREEQYNSTYRVVSVLTVLHQDWLNGKEYKCKVSNKALPAPIEKTISKAKGQPREPQVCTLPPSRDELTKNQVSLSCAVKGFYPSDIAVEWESNGQPENNYKTTPPVLDSDGSFFLVSKLTVDKSRWQQGNVFSCSVMHEALHNHYTQKSLSLSPGK | 1.92 nM | 48.8 nM |  |  |  |  |  | 
P2C4/P1A10 bispecific anti-IL-2Rβ/γc antibody, scFv-KiH-Fc format (bispecific antibody) chain 1: not shown chain 2: QVQLQQSGAEVKKPGSSVKVSCKASGGTFSSYAISWVRQAPGQGLEWMGGFDPEDGETIYAQKFQGRVTMTEDTSTDTAYMELSSLRSEDTAVYYCATDLRIPYYYDNPWGQGTLVTVSSGGGGSGGGGSGGGGSEIVLTQSPLSLPVTPGEPASISCRSSQSLLHSNGYNYLNWYLQKPGQSPQLLIYLGSDRASGVPDRFSGSGSGTDFTLKISRVEAEDVGVYYCMQALQTPTTFGGGTKVEIKNSGAGTAAATHTCPPCPAPEAAGGPSVFLFPPKPKDTLMISRTPEVTCVVVDVSHEDPEVKFNWYVDGVEVHNAKTKPREEQYNSTYRVVSVLTVLHQDWLNGKEYKCKVSNKALPAPIEKTISKAKGQPREPQVCTLPPSRDELTKNQVSLSCAVKGFYPSDIAVEWESNGQPENNYKTTPPVLDSDGSFFLVSKLTVDKSRWQQGNVFSCSVMHEALHNHYTQKSLSLSPGK |  |  | 28.2 nM | 0.0044 s⁻¹ | 156000 M⁻¹ s⁻¹ | 61.8 nM | 0.00961 s⁻¹ | 156000 M⁻¹ s⁻¹
